Results taken from paper PMC5386341 (Blood Cancer Journal, 2017).
Each block holds one binder with its values, some of them ahead of it.

Tests used:
human CD47 [1] = molecular target: T1, human CD47 (human, UniProt Q08722); experiment: not stated; binding affinity of IgG2σ mAbs to human and cyno CD47; the method stands in the Supplementary Information, not shown
T1 construct: CD47, human; The crystal structures used the human CD47 extracellular domain with a C15G mutation; also called integrin-associated protein

cynomolgus monkey CD47 [2] = molecular target: T2, cynomolgus monkey CD47 (Macaca fascicularis, UniProt A0A2K5X4I2); experiment: as above
T2 construct: CD47, cynomolgus monkey; also called cyno CD47

cynomolgus monkey CD47 [3] = molecular target: T3, cynomolgus monkey CD47 (Macaca fascicularis, UniProt A0A2K5X4I2); experiment: not stated; binding affinity of IgG2σ mAbs to human and cynomolgus monkey CD47; method is described only in the Supplementary section
T3 construct: CD47, cynomolgus monkey; also called cyno CD47

human CD47 [4] = molecular target: T4, human CD47 (human, UniProt Q08722); experiment: as above
T4 construct: CD47, human; the methods are in the Supplementary section; also called integrin-associated protein

- Kd (human CD47 [1]): 0.5 nM
- Kd (cynomolgus monkey CD47 [2]): 0.6 nM
B1: anti-CD47 mAb B6H12.2 engineered with the human IgG2σ Fc (antibody, V domains shown)
VH: EVKLVESGGDLVKPGGSLKLSCAASGFTFSGYGMSWVRQTPDKRLEWVATITSGGTYTYYPDSVKGRFTISRDNAKNTLYLQIDSLKSEDTAIYFCARSLAGNAMDYWGQGTSVTVSS
VL: DIVMTQSPATLSVTPGDRVSLSCRASQTISDYLHWYQQKSHESPRLLIKFASQSISGIPSRFSGSGSGSDFTLSINSVEPEDVGVYYCQNGHGFPRTFGGGTKLEIK
notes: heavy chain of B6H12.2 with a human IgG2σ Fc; light chain of B6H12.2; also called IgG2σ B6H12.2

- Kd (cynomolgus monkey CD47 [3]): 2.96 nM
- Kd (human CD47 [4]): 2.87 nM
B2: IgG2σ C47B161 (antibody, V domains shown)
VH: QVQLVQSGAEVKKPGASVKVSCKASGYTFTDYNMHWVRQAPGQRLEWMGDIYPYNGGTGYNQKFKGRVTITRDTSASTAYMELSSLRSEDTAVYYCARGGWHAMDSWGQGTLVTVSS
VL: DIVMTQSPLSLPVTPGEPASISCRSRQSIVHTNRYTYLAWYLQKPGQSPQLLIYKVSNRFSGVPDRFSGSGSGTDFTLKISRVEAEDVGVYYCFQGSHVPYTFGGGTKLEIK
notes: Human IgG2σ (effector function silent Fc)

- Kd (cynomolgus monkey CD47 [3]): 0.84 nM
- Kd (human CD47 [4]): 1.12 nM
B3: IgG2σ C47B222 (antibody, V domains shown)
VH: EVQLVQSGAEVKKPGESLKISCKGSGYSFTDYWIGWVRQMPGKGLEWMGIIYPGDSDTRYSPSFQGQVTISADKSISTAYLQWSSLKASDTAVYYCARVGRFASHQLDYWGQGTLVTVSS
VL: EIVLTQSPATLSLSPGERATLSCRASQSVNNRLAWYQQKPGQAPRLLIHWASTRAIGIPARFSGSGSGTDFTLTISSLEPEDFAVYYCQQGASWPFTFGQGTKVEIK
notes: as for B2
